How the values were obtained:
[1] = target: EcTOP1-G116S (Escherichia coli, UniProt P06612 1-865, G116S); assay: DNase I footprinting; 5 mM MgCl2; partial protection of double-stranded region, both strands; Footprinting: 40 mM Tris-HCl (pH not stated), 0.1 mg/ml BSA, 5 mM MgCl2, 37 C, 1 h; crystals: 0.125 M ammonium sulfate, 0.1 M MES pH 6.0, 1 mM ZnSO4, 19% PEG MME 5000, 24 C; settings: protein: recombinant; label: 5' 32P on G-strand or T-strand; duplex with 12-nt unpaired bubble
[2] = target: E. coli topoisomerase I (EcTOP1) (Escherichia coli, UniProt P06612 1-865); assay: X-ray crystallography; 1 mM ZnSO4, pH 6.0; 2.9 A; ssDNA 3' end bound by D5, D7, D8, D9 and R189; Footprinting: 40 mM Tris-HCl (pH not stated), 0.1 mg/ml BSA, 5 mM MgCl2, 37 C, 1 h; crystals: 0.125 M ammonium sulfate, 0.1 M MES pH 6.0, 1 mM ZnSO4, 19% PEG MME 5000, 24 C; settings: protein: recombinant; tags: N-terminal His6 removed with TEV protease; label: none in crystal; 3' overhang 9 nt on O29; 20 bp duplex

Binder | binding result [1] | binding result [2]
DNA bubble substrate (G-strand/T-strand) (mixed) DNA 1: GCCCTGAAAGATTATGGAATGCGATTAGTTCAAGAGCGTGAGCG DNA 2: CGCTCACGCTCTTGAAGTAGAGGAAGGACATAATCTTTCAGGGC | binds | 
O29-O20 partial duplex (mixed) DNA 1: GCTAAACCTGAAAGATTATGCGATTTGGG DNA 2: CATAATCTTTCAGGTTTAGC |  | binds

— article PMC4678816, “Structural basis for suppression of hypernegative DNA supercoiling by E. coli topoisomerase I”
